Two molecules from publication PMC3316703 can be followed below.

In experiment [1] the target is Thy-1 on CAD cells (mouse (endogenous in CAD cells)) (UniProt P01831).
Experiment [2] has as its target Thy-1 on the surface of primary rat cortical neurons (rat (endogenous in primary cortical neurons)) (UniProt P01830).
The target is the same in experiment [3]. The source holds these as a separate data set.
For experiment [4] the target is unchanged. This is another data set of the same source.
Experiment [5] concerns the target αVβ3 integrin on the cell surface of DITNC1 astrocytes (UniProt Q8R2H2).
Chain of UniProt Q8R2H2 (Q8R2H2 whole entry, looked up): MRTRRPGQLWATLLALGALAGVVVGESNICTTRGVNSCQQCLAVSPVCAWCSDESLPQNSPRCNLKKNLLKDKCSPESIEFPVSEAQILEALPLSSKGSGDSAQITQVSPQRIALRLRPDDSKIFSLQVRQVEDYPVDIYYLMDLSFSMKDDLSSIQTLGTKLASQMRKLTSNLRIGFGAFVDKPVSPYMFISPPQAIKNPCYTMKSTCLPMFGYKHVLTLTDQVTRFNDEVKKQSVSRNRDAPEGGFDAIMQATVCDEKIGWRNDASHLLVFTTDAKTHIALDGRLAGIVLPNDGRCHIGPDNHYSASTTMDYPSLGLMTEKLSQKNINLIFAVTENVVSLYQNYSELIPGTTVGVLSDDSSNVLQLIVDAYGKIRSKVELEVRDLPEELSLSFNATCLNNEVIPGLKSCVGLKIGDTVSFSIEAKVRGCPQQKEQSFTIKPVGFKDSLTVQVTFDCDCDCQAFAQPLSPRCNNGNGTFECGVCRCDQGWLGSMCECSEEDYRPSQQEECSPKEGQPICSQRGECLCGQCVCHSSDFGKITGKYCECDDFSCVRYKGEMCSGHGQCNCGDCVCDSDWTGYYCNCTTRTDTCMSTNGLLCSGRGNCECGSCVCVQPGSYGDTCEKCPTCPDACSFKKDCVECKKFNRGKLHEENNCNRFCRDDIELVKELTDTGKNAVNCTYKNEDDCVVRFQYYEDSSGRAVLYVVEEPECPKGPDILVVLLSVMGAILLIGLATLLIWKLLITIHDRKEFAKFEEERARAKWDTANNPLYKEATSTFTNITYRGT

Chain of UniProt P01830 (P01830 20-130): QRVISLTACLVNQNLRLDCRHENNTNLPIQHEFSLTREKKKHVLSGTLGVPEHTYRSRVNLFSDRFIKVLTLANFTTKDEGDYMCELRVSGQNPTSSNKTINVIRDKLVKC

As for “αVβ3-Fc fusion protein (from UniProt P06756 31-1048; P05106 27-718)”, the length of processes of CAD cells on αVβ3-Fc-coated plates in comparison to controls in experiment [1] was 40 % decrease. In addition, in experiment [2], the percentage of Thy-1 positive axonal terminals collapsed in mature cortical neurons (12–15 days in vitro) treated with αVβ3-Fc-containing supernatants was determined as 55%. This molecule also returned a percentage of axonal terminals collapsed in mature cortical neurons treated with αVβ3-Fc cross-linked with Protein A in experiment [3] of 80%. The length of dendrites of cortical neurons (4–5 days in culture) treated with αVβ3-Fc-containing supernatant for 72 hours, compared with non-treated neurons; prevented by PI-PLC pre-treatment in experiment [4] worked out at 50 % decrease.

B1: Thy-1 on CAD cells (natural protein)
chain: QKVTSLTACLVNQNLRLDCRHENNTKDNSIQHEFSLTREKRKHVLSGTLGIPEHTYRSRVTLSNQPYIKVLTLANFTTKDEGDYFCELQVSGANPMSSNKSISVYRDKLVKC
modifications: GPI anchor
For B1, the percentage of differentiated CAD cells (processes ≥15 µm) seeded over a monolayer of DITNC1 astrocytes, against ∼80% on plastic in experiment [5] was 35%.
